{
  "source": "paper PMC2686680",
  "about": "“Chibby forms a homodimer through a heptad repeat of leucine residues in its C-terminal coiled-coil motif” (BMC Molecular Biology, 2009)",
  "proteins": {"B1": {"name": "His-tagged Cby wild type (natural protein, human, UniProt Q9Y3M2 1-126, looked up)", "chain": "MPFFGNTFSPKKTPPRKSASLSNLHSLDRSTREVELGLEYGSPTMNLAGQSLKFENGQWIAETGVSGGVDRREVQRLRRRNQQLEEENNLLRLKVDILLDMLSESTAESHLMEKELDELRISRKRK", "notes": "Chibby (Cby), human, 126 amino acids; Cby cDNA in pcDNA4/HisMax A; the vector pcDNA4/HisMax A probably adds further N-terminal residues besides the His tag (surmise); also called His-Cby; His-CbyWT; source: transiently transfected for cross-linking), purified (nickel beads / Ni-NTA)"}},
  "target": "the molecule itself",
  "assay": "SEC; His-Cby purified from stable HEK293T on Superdex 75 FPLC, 20 mM Tris-HCl pH 8.0, 1.0 M NaCl, 1 mM EDTA, 2 mM DTT, 2 mM betaine-HCl, 0.02% Triton X-100, 5% glycerol; fractions blotted with anti-Cby",
  "data": [
    {"protein": "B1", "values": [
      {"measurement": "stoichiometry N", "result": 2}
    ]}
  ]
}
